{
  "source": "patent US8071547B2",
  "about": "“Compositions of alpha-fetoprotein and inducers of apoptosis for the treatment of cancer” (Constab Pharmaceutical, Inc., priority 2006, dated 2011)",
  "key": {"[1]": {"conditions": "in the fetus; cited from earlier work"}, "[2]": {"system": "polyclonal antibody to HAFP", "experiment": "AFP-EIA-BEST-Strip test", "assay_type": "binding", "method": "(§1) PAFP extracted by the methods detailed above was analyzed using two different immune-enzyme kits in order to detect the presence of PAFP in the extraction obtained from the methods detailed above. PAFP samples were compared to AFP isolated from human serum and amniotic fluid. Initially, samples were subjected to the membrane EIA Alpha-fetoprotein test (catalog #410-1, IND Diagnostic Inc., Vancouver, Canada) which incorporates a monoclonal antibody to HAFP. […] A second test kit incorporating a polyclonal antibody to HAFP (catalog number T-8456, AFP-EIA-BEST-Strip, Vector-BEST, Novosibirsk, Russia) was then used to assay the presence of PAFP in the extraction."}, "cancer cells [3]": {"system": "cancer cells", "experiment": "Comparison of AFP properties: anticancer activity (Table 1)", "conditions": "applicant's studies (Examples 4 to 8)", "text": "The present invention involves the use of exogenous alpha-fetoprotein (AFP) acting as a carrier or transporter of apoptosis-inducing agents directly to cancer cells resulting in the apoptosis of the cancer cells. U.S. Pat. Nos. 6,630,445 and 6,534,479 describe the use of recombinant human AFP for conjugation with cytotoxic agents.\n(NCBI Blast analysis is available on the world wide web at ncbi.nlm.nih.gov/blast/; Parker, M. H. et al., Protein Expression and Purification, 38:177-183, 2004)."}, "[4]": {"system": "monoclonal antibody to HAFP", "experiment": "Membrane EIA Alpha-fetoprotein test", "assay_type": "binding", "conditions": "compared to human AFP sample", "method": "as §1"}, "cancer cells [5]": {"system": "cancer cells", "conditions": "literature; cited from earlier work"}},
  "note": "Where two headings read alike, the source gives them in different places.",
  "data": [
    {"molecule": "AFP: alpha-fetoprotein, major transport glycoprotein in the fetus (protein, UniProt P02771 19-609, looked up) Alpha-fetoprotein: RTLHRNEYGIASILDSYQCTAEISLADLATIFFAQFVQEATYKEVSKMVKDALTAIEKPTGDEQSSGCLENQLPAFLEELCHEKEILEKYGHSDCCSQSEEGRHNCFLAHKKPTPASIPLFQVPEPVTSCEAYEEDRETFMNKFIYEIARRHPFLYAPTILLWAARYDKIIPSCCKAENAVECFQTKAATVTKELRESSLLNQHACAVMKNFGTRTFQAITVTKLSQKFTKVNFTEIQKLVLDVAHVHEHCCRGDVLDCLQDGEKIMSYICSQQDTLSNKITECCKLTTLERGQCIIHAENDEKPEGLSPNLNRFLGDRDFNQFSSGEKNIFLASFVHEYSRRHPQLAVSVILRVAKGYQELLEKCFQTENPLECQDKGEEELQKYIQESQALAKRSCGLFQKLGEYYLQNAFLVAYTKKAPQLTSSELMAITRKMAATAATCCQLSEDKLLACGEGAADIIIGHLCIRHEMTPVNPGVGQCCTSSYANRRPCFSSLVVDETYVPPAFSDDKFIFHKDLCQAQGVALQTMKQEFLINLVKQKPQITEEQLEAVIADFSGLLEKCCQGQEQEVCFAEEGQKLISKTRAALGV", "values": [
      {"measurement": "halflife", "setting": "[1]", "value": "72 to 120", "unit": "h"}
    ]},
    {"molecule": "PAFP: porcine alpha-fetoprotein, butanol-extracted from blood and amniotic fluid of embryos of 3 to 14 weeks gestation (protein, UniProt Q8MJ76 19-610, looked up) Alpha-fetoprotein: RTMHENAYGIASILDSSQCSAEMNLVDLATIFFAQFVQEATYKEVNQMVKDVLTVIEKSTGSEQPAGCLENQVSVFLEEICHEEEIPEKYGLSHCCSQSGEERHNCFLARKKAAPASIPPFQVPEPVTSCKAYEENRELFMTRYIYEIARRHPFLYAPTILSLAAQYDKIIPPCCKAENAVECFQTKAASITKELRESSLLNQHMCTVMRQFGARTFRAITVTKLSQKFPKANFTEIQKLVLDVAHIHEECCRGNVLECLQDAERVVSYVCSQQDTLSSKIAECCKLPTTLELGQCIIHAENDDKPEGLSPNLNRFLGERDFNQLSSREKDLSMARFTYEYSRRHPKLAVPVILRVAKGYQELLEKCSQSENPLECQDKGEEELEKYIQESQALAKRSCGLFQKLGEYYLQNAFLVAYTKKAPQLTPPELMALTRKMATTGAACCHLSEDRQLACGEGAADLIIGQLCIRHEEMPINPGVGQCCTSSYANRRPCFSSLVLDETYVPPPFSDDKFIFHKDLCQAQGVALQTMKQQFLINLVKQKPQITEEQLEAVIADFSGLLEKCCQGQEQEVCFAEEGPALISKTRASLGV", "values": [
      {"measurement": "Reaction with AFP-EIA-BEST-Strip kit", "setting": "[2]", "value": "positive reaction"},
      {"measurement": "Anticancer activity (AFP-mediated delivery of apoptosis-inducing agent bound to cancer cells)", "setting": "cancer cells [3]", "value": "Yes"},
      {"measurement": "Reaction with EIA Alpha-fetoprotein test kit", "setting": "[4]", "value": "did not produce a reaction"}
    ]},
    {"molecule": "HAFP: human alpha-fetoprotein (protein, UniProt P02771 19-609, looked up) Alpha-fetoprotein: RTLHRNEYGIASILDSYQCTAEISLADLATIFFAQFVQEATYKEVSKMVKDALTAIEKPTGDEQSSGCLENQLPAFLEELCHEKEILEKYGHSDCCSQSEEGRHNCFLAHKKPTPASIPLFQVPEPVTSCEAYEEDRETFMNKFIYEIARRHPFLYAPTILLWAARYDKIIPSCCKAENAVECFQTKAATVTKELRESSLLNQHACAVMKNFGTRTFQAITVTKLSQKFTKVNFTEIQKLVLDVAHVHEHCCRGDVLDCLQDGEKIMSYICSQQDTLSNKITECCKLTTLERGQCIIHAENDEKPEGLSPNLNRFLGDRDFNQFSSGEKNIFLASFVHEYSRRHPQLAVSVILRVAKGYQELLEKCFQTENPLECQDKGEEELQKYIQESQALAKRSCGLFQKLGEYYLQNAFLVAYTKKAPQLTSSELMAITRKMAATAATCCQLSEDKLLACGEGAADIIIGHLCIRHEMTPVNPGVGQCCTSSYANRRPCFSSLVVDETYVPPAFSDDKFIFHKDLCQAQGVALQTMKQEFLINLVKQKPQITEEQLEAVIADFSGLLEKCCQGQEQEVCFAEEGQKLISKTRAALGV", "values": [
      {"measurement": "Anticancer activity (AFP-mediated delivery of apoptosis-inducing agent bound to cancer cells)", "setting": "cancer cells [5]", "value": "Yes"}
    ]}
  ]
}
